Two substances from patent US5861491 can be followed below.

Test [1] addresses caseins (casein fraction of whole bovine milk). Nature of the test: co-sedimentation of bLF with the casein pellet of whole cow milk (centrifugation only, no addition), bLF read by competitive inhibition RIA.
In test [2] the target is human serum albumin immobilized on Sepharose (human) (UniProt P02768). Nature of the test: 125I-hLF retained on HSA-Sepharose, 10 mM sodium phosphate, 0.15M NaCl, pH 7.4, no addition.
Test [3] shares this target. Nature of the test: 125I-hLF retained on HSA-Sepharose, +0.2% Tween-20 +0.1% Polybrene.
The target is the same in test [4]. Nature of the test: 125I-hLF retained on HSA-Sepharose, +0.2% Tween-20 +2 M NaCl.
Test [5] has the same target. Nature of the test: 125I-hLF retained on HSA-Sepharose, +0.2% Tween-20 +0.25 M NaCl.
Test [6] shares this target. Nature of the test: 125I-hLF retained on HSA-Sepharose, +0.2% Tween-20.
The target is the same in test [7]. Nature of the test: 125I-hLF retained on HSA-Sepharose, +0.2% Tween-20 +0.5 M NaCl.

In the case of “bovine lactoferrin (from UniProt P24627)”, in test [1], the % of total bLF found in casein fraction was found to be 21%.
As for “125I-labelled human lactoferrin (from UniProt P02788)”, the percentage binding in test [2] worked out at 8%; in test [3], 4%; in test [4], 4%; in test [5], 4%; in test [6] it was 9%; in test [7], 3%.
